# According to IntAct's records for PubMed 23685356:
# B1: Homeobox-containing protein 1 (Homo sapiens), Q6NT76 (parent)
# chain: MLSSFPVVLLETMSHYTDEPRFTIEQIDLLQRLRRTGMTKHEILHALETLDRLDQEHSDKFGRRSSYGGSSYGNSTNNVPASSSTATASTQTQHSGMSPSPSNSYDTSPQPCTTNQNGRENNERLSTSNGKMSPTRYHANSMGQRSYSFEASEEDLDVDDKVEELMRRDSSVIKEEIKAFLANRRISQAVVAQVTGISQSRISHWLLQQGSDLSEQKKRAFYRWYQLEKTNPGATLSMRPAPIPIEDPEWRQTPPPVSATSGTFRLRRGSRFTWRKECLAVMESYFNENQYPDEAKREEIANACNAVIQKPGKKLSDLERVTSLKVYNWFANRRKEIKRRANIEAAILESHGIDVQSPGGHSNSDDVDGNDYSEQDDSTSHSDHQDPISLAVEMAAVNHTILALARQGANEIKTEALDDD
# partner: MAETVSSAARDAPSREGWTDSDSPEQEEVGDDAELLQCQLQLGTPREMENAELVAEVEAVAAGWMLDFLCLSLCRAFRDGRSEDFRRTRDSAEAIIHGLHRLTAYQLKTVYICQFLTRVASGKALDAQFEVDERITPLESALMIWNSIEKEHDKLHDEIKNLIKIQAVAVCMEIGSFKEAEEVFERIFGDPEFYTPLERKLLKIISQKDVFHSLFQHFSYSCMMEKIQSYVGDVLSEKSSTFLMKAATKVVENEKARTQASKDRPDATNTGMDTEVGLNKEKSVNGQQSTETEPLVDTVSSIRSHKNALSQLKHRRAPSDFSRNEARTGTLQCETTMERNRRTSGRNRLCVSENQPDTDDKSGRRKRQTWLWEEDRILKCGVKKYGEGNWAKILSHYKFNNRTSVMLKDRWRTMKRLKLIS
# Variants of: B1
# Conditions: with terf1_mouse Terf1, P70371
row,Variant,effect of a mutation on the interaction
1,R339A,disrupting interaction
